# Source: paper PMC12557607, “The mitochondrial disulphide relay substrate FAM136A safeguards IMS proteostasis and cellular fitness” (Redox Biology, 2025)
# Target: the molecule itself
# Test: SEC; cleared native HEK293 lysate (100 mM sodium phosphate pH 8.0, 100 mM NaCl, 1 % Triton X-100) on HiLoad 16/600 Superdex 200; fractions blotted for endogenous FAM136A
# Chain of FAM136A (Q96C01 whole entry): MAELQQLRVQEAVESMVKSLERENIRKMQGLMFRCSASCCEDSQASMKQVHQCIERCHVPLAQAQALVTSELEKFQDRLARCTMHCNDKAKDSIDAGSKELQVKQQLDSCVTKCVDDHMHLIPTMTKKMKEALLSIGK
protein,measurement,value
"FAM136A (natural protein, FAM136A, endogenous in HEK293 cells; soluble protein of the mitochondrial intermembrane space; also called endogenous FAM136A; source: endogenous, HEK293 lysate) not shown",stoichiometry N,~2
